According to the DeepSol protein solubility set:

Assay: soluble on expression in E. coli; label from the status in PepcDB or PDB records

Row | Sequence | soluble on expression in E. coli
1 | MAESMQSKPSFEYPKRAAIGSYWSNRNRDEKHFKNLGPASLSSASAGKVMQWMLSHTCNGVPKPKGGYDAFGKIWYAPCNMAESVAQWRASMSNDEAQPAKNRVYWIGHSSQLLCLSNGINILFDPIFSQRASPLSFAGPSRRFPPAATAAQLPPIHIVTVSHNHYDHMDKQSIKAVAARFPDAHFVVPLKLDRFLREWGVPGASITTLDWYEACEVKGVRVGCTPAQHWGKHSAFDDNEVLWCGWCVGWQPGQQQQPASTCEKPTLISFSGIEPSSEALVEAQRTWNRYKKYFFAGDTAYNPDVSTSIYAHFGPMDMAALPIGAYSPRWFMARAHIDPEHAVQIFKDQHIQQAVAVHWGTFELADEPLDEPPQVLRKTLKDASIDENRFQIIPMGKFIEF | soluble
2 | MSLKKLTVAALAVTTLLSGSAFAHEAGEFFMRAGSATVRPTEGAGGTLGSLGGFSVTNNTQLGLTFTYMATDNIGVELLAATPFRHKIGTRATGDIATVHHLPPTLMAQWYFGDASSKFRPYVGAGINYTTFFDNGFNDHGKEAGLSDLSLKDSWGAAGQVGVDYLINRDWLVNMSVWYMDIDTTANYKLGGAQQHDSVRLDPWVFMFSAGYRFEGGSHHHHHH | soluble
3 | GSLHRVPLRRHPSLKKKLRARSQLSEFWKSHNLDM | soluble
4 | GPLGSMATVPVYCVCRLPYDVTRFMIECDACKDWFHGSCVGVEEEEAPDIDIYHCPNCEKTHGKSTLKKKRTWHK | soluble
5 | MSSFQLQQLPSLPIKEVFKSLGVCDLLNLCRSSNKSRRLVKKSLKDITFTLKIVAEEKHYKIWLKEDFSKHKARIRAENSNGTSLFKNIRWLMHTFWVETVYLDCTNVEEGDVVKVVEYLKKEKPYYLKLYFECPMISDSLWQLMLNCEADVLIISVDREVKVTFDNVPLLFNCECIILHGVKFSEKGMNLLFKTWQSSKERTLQCVSLTRKLGPFWKKQANEKVVLKGIDVESVEKKRIFKVKKDGIKKSTTYNLVKNDGELATLKFDKQEICFHTENDR | not soluble
6 | SFHGIPASGVMGGAPANKPELYEEVKLYKNAREREKYDNMAELFAVVKTLQALEKAYIKDCVTPNEYTGACSRLLVQYKAAFKQVQGSDVGSIDDFCRKYRLDCPLAMERIKEDRPITIKDDKGNLNRCIADIVSLFITVMDKLRLEIRAMDEIQPDLRELMETMNRMSNMPPDSEAKDKVSLWLTTLSSMSASDELDDSQVRQMLFDLESAYNAFNRFLHSS | soluble
7 | MATQDDAHLAELKKKRTFRKFMYRGVDLDQLLDMSREQFTKLLPCRMRRRLDRGLKRKHLALIAKVQKAKKAAGVLEKPATVKTHLRDMIILPELVGGVIGIYNGKVFNQTEIKPEMIGFYLGEFAISYKPVKHGRPGIGATHSSRFIPLK | not soluble
8 | MNTVFSNIANAKITEKSLNAVWMDLFKSADEVLMATGYVSNDAVVELHKILELNDHIQKIDLLVGMHYLEGFSHLQYDSLCKLNDFLRHEKRGAVYVSPFVKFHGKMYSFKNYQKINGLIGSANLTCFWDSTERTYETMLHLNGKPAQILQADIQSTIHKLGKNIQEVERPSKFIEHNSHLENCLGVQKIAPEQIRQLFAQTSEYHFSIPAKTEEKSNLNVFFGEGRRDKRGFVKPRPWYEVELIVSKDITSQEGYPVLKSFTVITDDGWQFQCKTSGDYSKNFRSENDLKTLGKWIKGRLESHGCLQNNEKITHETLREYGNDHFELRSTDNPDVWLLSFKGKN | not soluble
9 | MPTVSVKRDLLFQALGRTYTDEEFDELCFEFGLELDEITSEKEIISKEQGNVKAAGASDVVLYKIDVPANRYDLLCLEGLVRGLQVFKERIKAPVYKRVMPDGKIQKLIITEETAKIRPFAVAAVLRNIKFTKDRYDSFIELQEKLHQNICRKRALVAIGTHDLDTLSGPFTYTAKRPSDIKFKPLNKTKEYTACELMNIYKTDNHLKHYLHIIENKPLYPVIYDSNGVVLSMPPIINGDHSRITVNTRNIFIECTGTDFTKAKIVLDIIVTMFSEYCENQFTVEAAEVVFPNGKSHTFPELAYRKEMVRADLINKKVGIRETPENLAKLLTRMYLKSEVIGDGNQIEIEIPPTRADIIHACDIVEDAAIAYGYNNIQMTLPKTYTIANQFPLNKLTELLRHDMAAAGFTEALTFALCSQEDIADKLGVDISATKAVHISNPKTAEFQVARTTLLPGLLKTIAANRKMPLPLKLFEISDIVIKDSNTDVGAKNYRHLCAVYYNKNPGFEIIHGLLDRIMQLLDVPPGEDKGGYVIKASEGPAFFPGRCAEIFARGQSVGKLGVLHPDVITKFELTMPCSSLEINIGPFL | soluble
10 | MAHHHHHHMSTYVPKPSRDNVYRFFFTEGVIACKKDRMGTWTGTLGGNTFTVPCIQVMQLMRSLKSRNLIKEQYAWRHYYWTLNDEGIAYMRSYLHLAPSAMPNTQKPSSVNFEKVTEGRGRGRGRGGRGRGEGRGRGRGEGRGRGRGRGFGGERMNYRAAAATSDGEAAPAPAAE | soluble
11 | MKQVKITTTSDLINGGCNACPNVKCTNYLVHVEDETIALETLTVADLVTLLALKEGFRQKLVMEMFEEYTVFERETHQVVFKEEETRILFQSKKQTIQSTLLCKEPQQVFQETQQILHQLFELEPFEFELVEETDE | not soluble
12 | MTITKLAWRDLVPDTDSYQEIFAQPHLIDENDPLFSDTQPRLQFALEQLLHTRASSSFMLAKAPEESEYLNLIANAARTLQSDAGQLVGGHYEVSGHSIRLRHAVSADDNFATLTQVVAADWVEAEQLFGCLRQFNGDITLQPGLVHQANGGILIISLRTLLAQPLLWMRLKNIVNRERFDWVAFDESRPLPVSVPSMPLKLKVILVGERESLADFQEMEPELSEQAIYSEFEDTLQIVDAESVTQWCRWVTFTARHNHLPAPGADAWPILIREAARYTGEQETLPLSPQWILRQCKEVASLCDGDTFSGEQLNLMLQQREWREGFLAERMQDEILQEQILIETEGERIGQINALSVIEFPGHPRAFGEPSRISCVVHIGDGEFTDIERKAELGGNIHAKGMMIMQAFLMSELQLEQQIPFSASLTFEQSYSEVDGDSASMAELCALISALADVPVNQSIAITGSVDQFGRAQPVGGLNEKIEGFFAICQQRELTGKQGVIIPTANVRHLSLHSELVKAVEEGKFTIWAVDDVTDALPLLLNLVWDGEGQTTLMQTIQERIAQASQQEGRHRFPWPLRWLNWFIPN | soluble
13 | MGSDKIHHHHHHMNMKVLLVNPVGEWGGAEKIFFLVSQIFQKTGFELYVLLGSRGILYEKLRNLNFNISIMNFPDLSENSIVIAGRRFQLPHHLLKNLRKIKILSKKFWDYLRILKPDIIYLNNLRSLVLYYETVRTYGKPCEAVVIWHEHGYQRSIIRQLILDKIYLKFVDAVICVSKHLANKHLKDVQQKLYVVHNGIPDELNAIEKENVRYEYNNNKVLIIHPAFITYWKGQHLALKAVDLLVKRGVRNFEIWFFGEPRSKQDYKYFKKLKQFVRSKNLEKQVFFKGFSANIIDEMLKADIVISTSVEDDPFPTILLEASMIGKPVVTTDAGGSGEIVKNGETGFVVKKDKRELASALCELIQNKELRDVFSKNARDRFLKEFSILAFEKRFLETLESILRR | not soluble
14 | MGSDKIHHHHHHMIELCEVTKTYPIYHGHAQRTILDRINLRVGKGQKWGILGRNGAGKSTLIRLISGAERPNTGNIVRNMTVSWPLAFGGAFQGSLTGRDNTRLICRAYGVDFDKTITMVENFAELGSYLWEPVKSYSSGMSARLAFAISISVEFDCFLIDEALAVGDHRFLQKCNVELFENRGDRAMIIVSHQTNIIRTHCDHAAVLENGHLTVHESVDSAIAAYEAL | not soluble
15 | MWQCHLSAQDYRYYPVDGYSLLKRFPLHPLTGPRCPVQTVGQWLESIGLPQYENHLMANGFDNVQFMGSNVMEDQDLLEIGILNSGHRQRILQAIQLLPKMRPIGHDGYHPTSVAEWLDSIELGDYTKAFLINGYTSMDLLKKIWEVELINVLKINLIGHRKRILASLGDRLHDDPPQKPPRSITLRTGDWGEPSITLRPPNEATASTPVQYWQHHPEKLIFQSCDYKAFYLGSMLIKELRGTESTQDACAKMRANCQKSTEQMKKVPTIILSVSYKGVKFIDATNKNIIAEHEIRNISCAAQDPEDLSTFAYITKDLKSNHHYCHVFTAFDVNLAYEIILTLGQAFEVAYQLALQARKGGHSSTLPESFENKPSKPIPKPRVSIRKSVDLLHASHTGQEPSERHTEEALRKF | soluble
16 | TPLSQSSSSKNASDVSGSIQPVDSKSGLQMLFSGYRGIGGVQTLDLQQMSSDIPNAETKTVADQVINAWKQMKYTPFGRSTGSFTIRLNPEHLGFVTIKLTNENGMFQSKIIASSQSAKELLEQHLPQLKQSLPNMAVQIDRFTLPVQS | not soluble
17 | MKIAMLGSLGNINRIVVPKLVQAGHDVTVISTSPKRQASIEAIGAHAAIGTMTDVDFLSTTFTDKDVVYLMLSGGIGDDPFEGAVAQAKIWKQAIENAGVTNVVNLSSIGADADEVAGSLHAYNLIEHELRQLDGVNLAFVRPTGFYANLFGNLATIKAEHKIYSSTPAASAQKYVAPEDIASVVYPLIDHTPAGITVKYAFSDTFTGDQFVADLRDALNMPDLQWVQISDEQYQANLTNHGVPVKIAASLVQTSRYQREPEGLYADLNASDTSAGQVKLADFVRTFVVAYNSEGGYQSHTIAD | not soluble
18 | MSLSILNSLKNIAFIGFYFIFAVNKMSRADEGRLIHLAKKREREKEDIEQQLRKLEEDKEKCRVGITNKFMANYETVEEVVKSKTYGLVSLDDMKNIQKNEISNRDLQVARGDQSSSTQSKDSQEAREKEEHVAKHTQKRFLSFAFDDEEDEEDAAPIIPKKRVGMDPTVDTSFLPDKEREEFLRKKKESLAAEWRVKQDAEKNEEITVAYAYWDGSSHRKNMKIKKGNTISQCLGRAIEALKKEFTELKSCTAENLMFVKEDLIIPHFYTFQDFIVTKAMGKTGPLFVFDSASDVRIRQDAALDYGESHPAKIVLRSWYEKNKHIYPASRWEPFVPSKKYGRNFDDLSDL | not soluble
19 | MAGDPMIPVKNDPIDTRLAEMHEELRDLRNFPDSEFVGIIRELGFKCELCARCCTREFNDHVFLLDSDLERVRSIDPDAVTPAPYYEFCDQNGRFYVSGYALKTKPDGSCIFLENKRCRIYESRPSICRVYPHMLHREADETGKVDWRQISGLNEHGSYHSDLDDPACKEIALETRAYEEAYLQQVIGFFEAVKAHFRTNGLKHIQRTYDRKMREFLKGECDLEIFVYCKGGFEKQKLAKESERLEHHHHHH | soluble
20 | IFSEINIDPTKRVLLYAPTWKTNSSDDDIFPINEQLLKHYNVIYKGHVESKNDLVPEGVIIPPNNIETQDLIIISDVVLTDYSSIIFDALTVDKKGCLYTPNHSQYVEERGVYQDVMDTLKPIWYTDAELLINDLITDSIPQLNNKYTNKNNQSFEYISKLISN | not soluble
21 | MAHHHHHHMRRVERSSRGEGEDTLATGEANVRTDTTVDVLRRASRHAQGAIETSWMTTRRLQVQGEQLEEIDRALDKMEHDLGVGDDALRRMTWTGRVKRWFTSRRKQPSDGVESSTSSSVPSSSLPIKPQGLREKNQQREGTRGSKRDDVIGCGSSTSHIAMEEEKLLDALLGDVHAMREQATLQGAMLTEHNRRLDVIATKTDAVHNHVNRTKQKVEKML | soluble
22 | MPKIAEIEGTPNPNALKFVLKEPLTWGVAKSYDHAEQAVDDPLAAALFDIDHVTNVFYVDRWITITQDGGADWQDLAREVADPIRAAPAATDQSAAVVAAASRTLADLSEEDQQRLERINILLDEEVRPFLQHDGGDLHVLALEGNILRIHYQGACGTCPSSISGTLRGIEQLLRTIEPDIRVVSA | not soluble
23 | MSWRYSILTVDGSFKIFIPWEIFLTWNFLSAAWLNSTESNTYIHYSTCWGTSDYTLNISVIEATTEKLVDTRLLTTLENATAWINSNSIDEDEDDMPHATNVADRLDGLSLSKRVYSICHYEF | not soluble
24 | QNTLAENQFNQRRTIETTLMGSIISAFRARGDAGAREILTEWKDSPVSSGVYVIQGDEKKDILNRYIDSYTIERARLFAAGHPHSNLVHIEYDRFGEEYLFFTKDWDKLQARRLPSPLLIPGLPLAPIWHE | not soluble
